Results from the nanobody polyreactivity screen of Harvey et al. (2022).

test: yeast display, Sf9 membrane polyspecificity reagent, FACS + sequencing; frameworks hold sequencing errors
In short: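 Galactose-induced (36–48 hours) yeast carrying a synthetic nanobody display library were exposed to 10% biotinylated, detergent-solubilized Sf9 membrane reagent at 4 °C for 1 hour. FACS followed streptavidin microbead enrichment, using low and high (top ~1%) gates for expression (anti-HA) and reagent binding (streptavidin). Colony PCR, MiSeq 2 × 250 sequencing and CDR-length filtering followed. Labels for polyreactivity reflect the gate of origin.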

Row | Sequence | polyreactivity (PSR sort gate)
1 | QDQHVESGGGLVQAGGSLRLSCAASGNTFIRNVMGWYRLAPGKERELVAGIRTGGSTFYADSVKGRFTISRDNAKNTVYLQMNSLKPEDTAVYYCKAEVGDEGNLPYVIRPMDYWGQGTQVTVSS | low polyreactivity
2 | QVQLVESGGGLVQAGGSLRLSCAASGRIFRIYAMGWYRQAPGKERELVASITWRGGRTYYADSVKGRFTISRDNAKNTVYLQMNSLKPEDTAVYYCAATSSTSYYWGQGTQVTVSS | high polyreactivity
3 | QVQLVESWGGLVQAGGSLRLSCAASGINFQNYDMGWYRQAPGKERELVAAINGSGGSTYYADSVKGRFTISRDNANNTVYLQMNSLKPEDTAVYYCNAVWEYYGKSDYWGQGTQVTVSS | low polyreactivity
4 | QVQLVESGGGLVQAGGSLRLSCAASGSIFKGYSMGWYRQAPGKERELVAAITIDGSTYYADSVKGRFTISRDNAKNTVYLQMNSLKPEDTAVYYCAAVYLWYGSWPLHFAAYDYWGQGTQVTVSS | low polyreactivity
5 | QVQLVESGGGLVQAGGSLRLSCAASGIIFGKYVMGWYRQAPGKEREFVAAISVRSGSTYYADSVKGRFTISRDNAKNTVYLQMNSLKPEDTALYYCAAREPVPRHLDYYYWGQGTQVSVSS | high polyreactivity
6 | QVQLVESGGGLVQAGGSLRLSCAASGSIFPYNVMGWYRQAPGKERELVAAITTGGRTNYADSVKGRFTISRDNAKNTVYLQMNSLKPEDTAVYYCAADRVVFGYWYYYWGQGTQVTVSS | high polyreactivity
7 | QVQLVESGGGLVQAGGSLRLSCAASGSIFIGYAMGWYRQAPGKERELVAAISNSGGRTYYADSVKGRFTISRDNAKNTVYLQMNSLKPEDTAVYYCAAEERYAYRYDYSGQGTQVTVSS | high polyreactivity
8 | QVQLVESGGGLVQAGGSLRLSCAASGSIFLGSVMVWYRQAPGKERELVATITGNGDGTYYADSVKGRFTISRDKAKNTVYLQMNSLKPADTAVYYCAADRSGPGYDYWGQGTQVTVSS | low polyreactivity
9 | QVQLVESGGGLVQAGGSLRLSCAASGSTLVGNTMGCYRQSPGKERELVAAITGVGSTNYADSVKGRFTISRDNAKNTVYLQMNSLKPEDTAVYYCAAQYSYTYIVSYLYDMDYWGQGTQVTVSS | low polyreactivity
10 | QVQLVESGGGLVQGGGSLRIICAASGFTFTDYAMGWYRQAPGKERELVAAIDGSGGRTYYAYSVKGRFTISRDNAKNTFYLQMNSLKPEHTAVYYCAAGLYSRLYWYRLDYWGQGTQVTVSS | low polyreactivity
11 | QDQHVESGGGLVQAGGSLRLSCAASGSNFDVYAMGWYRQAPGKERELVATISYGDSSTYYADSVKGRFTISRDNAKNTVYLQMNSLKPEDTAVYYCAADYLTAPRWRQWGVMDYWGQGTLVTVSS | low polyreactivity
12 | QVHLVESGGGLVQAGGSLRLSCAASGFTYSPYVMGWSRQAPGKEWELVASISKRGGGTYYADSVKGRFTISRDNAKKTFYLQMNRLKPEDTAVYYCNVVTATAYQGVDYWGQGSQVTVSS | high polyreactivity
13 | QVQLVESGGGLVQAGGSLRLSCAASGLIIPAYAMGWYRQAPGKEREMVATITWRGGSTYYADSVKGRFTISRDNAKNTVYLQMNSLKPEDTAVDYCATRPRYYYFRYDYWGQGSQVTVSS | high polyreactivity
14 | QVQLVESGGGLVQAGGSLRLSCAASGRIFYYYAMGWYRQAPGKERELVAGISSGSSTNYADSVKGRFTISRDNAKNTVYLQMNSLKPEDTAVYYCAAYPYFSVAANDDYWGQGTQVTVSS | low polyreactivity
15 | QVQLVESGGGLVQAGGSLRLSCAASGLIFYFYAMGWYRQAPGKERELVAGITNVGSTNYADSVKGRFTISRDNAKNTVYLQMNSLKPEDTAVYYCAAQYYTVRSTYDYWGQGTQVTVSS | high polyreactivity
16 | QVQLVESGGGLVQAGGSLRLSCAASGITFRGYAMGWYRQAPGKERELVAAINSGGSTNYADSVKGRFTISRDNAKNTVYLQMNSLKPEDTAVYYCAAGWYYYWGNYLSYAYDYWGQGTQVTVSS | high polyreactivity
17 | QVQLVESGGGLVQAGGSLRLSCAASGGTFYANAMGWYREAPGKERELVATITSSSGSTSYADSVKGRFTISRDNAKNTVYLQMNSLKPEDTAVYYCAKDSHAQGPYRYKHYHHTGDYWGQGTQVTVSS | low polyreactivity
18 | QVQLVESGGGLVQAGGSLRLSCAASGRTFYDNAMGWYRQAPGKERELVAAITKSGGRTYYADSVKGRFTISRDFAKNTVYLQMNSLKPEDTAVYYCAASWPNYLYEYWGQGTQVTVSS | high polyreactivity
19 | QVHLVESRGVLVQAGGSLRLSCAASGRTFQPYAMGWYRQSPGKERELVADITWNTGRTYYADSVKGRFTISRDNAKNTVYLQMNSLIPEDTAVYYCAGDDLGDYRFYKIYDYWGQGTQVTVSS | high polyreactivity
20 | QVQLVESGGGLVQAGGSLRLSCAACGRIFGYYAMGWYRQAPGKERELVAAITGVGRTNYADSVKGRFTISRDNAKNTVYLQMNSLKPEDTAVYYCNVVRVYRYDYWGQGTQVTVSS | high polyreactivity

Row | Sequence | polyreactivity (PSR sort gate)
21 | QVQLVESGGGLVQAGGSLRLSCAASGRIFAGYGMGWYRQAPGKARELVAAISSGGSTYYADSVKGRFTISRDNAKNTVYLQMNSLKPEDTAVYYCATDGQSVPDDYYQNVDYDYWGQGTQLTVSS | low polyreactivity
22 | QGQLVESGGGLVQAGGSLRLSCAASGRTFPRYAMGWYRQAPGKERELVAVISFSGDSTSYADSVKGRFTISRDNAKNTVYLQMNSQKPEDTAVYYCKADYKSTVVRYSGSRNYWGQGTQVTVSS | low polyreactivity
23 | QVQLVESGGGLVQAGGSLRLSCAASGITFNRYAMGWYRQAPGKERELVARISLRGGNTYYADSVKGRFTISRDNAKNTVYLQMNSLKPEDTAVYYCNAPYYSRRGNSWGQGTQVTVSS | high polyreactivity
24 | QVQLVESVGGLVQAGGSLRLICAASGSIFLDNAKGCYRQAPVKERELVSAISWGGGSTYYADSVKGRFTISRDNAKNTVYVQMNSLKPEDTAVYYCAAESYYYIRYFDYSRWMGYWGQGTQVTVSS | low polyreactivity
25 | QVQLVESGGGLVQAGGSLRLSCAASGFTFYFYAMGWYRQAPGKERDLVAAINSGDSTYYADSVKGRFTISSDNEKNTVYLQMNSLKPEDTAVYYCSAAQFIQLRDYWGQGTQVTVSS | high polyreactivity
26 | QVQLVESGGGLVQAGGSLRLSCAASGFIFGYYAMGWYRQAPGKERELVAAINKNGGSTYYADSVKGRFTISRDNAKNTVYLQMNSLKPEDTAVYYCAARARGYAWTYDYWGQGTQVTVSS | high polyreactivity
27 | QVQLVESGGGLVQAGGSLSLSCAASGFIFLASAMGWYRQAPGKERELVAAISSGSSTSYADSLKGRFTISRDNAKNTVYLQMNSLKPEDTAVYYCNAVPSFANLTWESYDYWGQGTQVTVSS | low polyreactivity
28 | QLQLVESGRGLVQAGGSLRLSCAASGITFPGYAMGWYRQAPGKERELVAAIDWSGDGTYYADSVKGRFTISRENAKNTVYFQMNSLKPEDTAVFYCAKDNYPNHSTVLAVIYDNWGQGTQVTVSS | low polyreactivity
29 | QVQLVESGGGLVQAGGSLRLSCAASGRIFALYAMGWYRQAPGKERELVAAISGGGGSTYYADSVKGRFTISRDNAKNSVYLQMNSLKPEDTAVYYCAARGLSGSSVKYGYWGQGTQVTVSS | high polyreactivity
30 | QVQLVESVGGLVQAGGSLRLSCAASGRTFGRYAMGWYRQAPGKERELVAGISRSGDSTHYADSVKGRFTISRDNAKNTVSLQMNSLKPEDTAVYYCNKETPTIGARKYEYWGQGTQVTVSS | low polyreactivity
31 | QVQLVESGGGLVQAGGSLRLSCAASGSTFKKYAMGWYRQAPGKERELVAAITWTGGSTYYADSVKGRFTISRDNAKNTVYFQMNSLKPEDTAVYYCAAYKTYAVKYYWGQGTQVTVSS | high polyreactivity
32 | QVQLVESGGGLVQAGGSLRLSCAASGSTFYAYAMGWYRQAPGKERELVAAISSSGGSTYYADSVKGRFTISRDNAKNTVYLQMNSLKPEDTAVYYCAAYDSVQKYWILGFDYWGQGTQVTVSS | low polyreactivity
33 | QVQLVESGGGLVQAGGSLRLSCAASGSIFLDNAMGWYRQAPGKEREFVATISWRTGRTYYADSVKGRFTISRDNAKNTVYLHMNSLKPEDTAVYYCAVDTVRNHRMDYWGQGTQVTVSS | low polyreactivity
34 | QVQLVESGGGLVQAGGSLRLSCAASGRTFGLYAMGWYRQSPGKERELVATISRGGSTYYADSVKGRFTISRDNAKNTVYLQMNSLKPEDTAVYYCNAAKYTWYYGYNYWGQGTKVTVSS | high polyreactivity
35 | QVQLVESGGGLVQAGGSLRLSCAASGYTSYVYAMGWYRQAPGKERELVAAISLRTASTYYADSVKGRFTISRDNAKNTVYLQMNSLKPEDTAVYYCARGRETYRYCYRLNYWGQGTQVTVSS | high polyreactivity
36 | QVQLVESGGGLLQAGGSLRISCAASGSILFLYDMGWYRQAPGKERELVAAIRWSGGGTYYADSVKGRFTISRDNAKNTVYLQMNSLKPEDTAVYYCAAAARYPFDVTYYYWGQGTQVTVSS | high polyreactivity
37 | QVQLVESGGGLVQAGGSLRLSCAASGRTFPNYAMGWYRQAPGKERELVAAITRGVRTHYADSVKGRFTISRDNAKNTVYLQLNSLKQEDTAVYYCARSYRSDGSRFGYWGQGTQVTVSS | low polyreactivity
38 | QVQHVDSGGGLVQAGGSLRLSCAASGRTLTVYAMGWYRQAPGKERELVAAITWRGGSTYYADSVKGRFTISRDNAKNTVYLPMNSLKPADTPVDYCAAEDYTYNGGGYEYWGQGTQVTVSS | low polyreactivity
39 | QVQLVESGGGLVQAGGSLRLSCAASGSTFRGNAMGWYRQAPGKERELVAAITRRGGSTYYADSVKGRFTISRDNAKNTVYLQMNRLKPEDTAVYYCAADWGNDWWGLFWGDYWGQGTQVTVSS | high polyreactivity
40 | QVQLVESGGGLVQAGGSLRLSCAASGFTFKRYAMGWYRQAPGKESELVAVISSGGSTYYADSVKGRFTISRDNAKNTVYLQMNSLKPEDTAVYYCNAYIGGSSWHTALDYWGQGTQVTVSS | high polyreactivity
